Measurements: US20240368568, “MODIFIED PRP43 HELICASE AND USE THEREOF” (QITAN TECHNOLOGY LTD., CHENGDU, published 2024)

Experiments:
[1] = target: Prp43-GP-2 (F181C/N623C/C508S) (Chaetomium thermophilum); test: EMSA; no significant dissociation with or without TMAD; 120 nM protein, 30 nM DNA; settings: tags: C-terminal G-path domain fusion; GST tag removed; label: FAM
Description: (§1) In this example, the binding of the N-terminus (M1-N60)-truncated wild-type Prp43 helicases or the modified protein constructs Prp43-GP and Prp43-GP-2 (F181C/N623C/C508S) to DNA, including the enhancement of nucleic acid binding following disulfide bond formation between mutant sites F181C and N623C in the mutants catalyzed by a TMAD catalyst, was assayed by an electrophoresis mobility shift assay.
(§2) The experimental procedures were as follows: 30 nM FAM fluorophore-labeled single-stranded poly-thymine substrate T44-37-FAM was added to a buffer (10 mM HEPES, 50 mM KCl, pH 7.0), the wild-type Prp43 helicase and the modified helicases […] and Prp43-GP-2 at a final concentration of 120 nM were separately added, and the mixture was incubated at 30° C. for 1.5 h; a TMAD cross-linking agent at a final concentration 1000 times that of the helicase was used for catalyzing the crosslinking of cysteines at mutation sites, and the mixture was incubated at 30° C. for 1.5 h.

[2] = target: Prp43-GP (T61-A764 fused to G-path domain of Pfa1) (Chaetomium thermophilum); test: EMSA; milder dissociation than wild type; 120 nM protein, 30 nM DNA; settings: tags: C-terminal G-path domain fusion; GST tag removed; label: FAM
Description: as §1, §2

TTTTTTTTTTTTTTTTTTTTTTTTTTTTTTTTTTTTTTTTTTTT (ssDNA, [FAM at T37 (from name)]) [T44-37-FAM poly-thymine substrate]: binds [1]; binds [2].
